{"source": "patent US20160244529A1", "about": "(ROTTAPHARM BIOTECH S R L, published 2016)", "binders": {"B1": {"name": "anti-TrkA scFv CRB0036 (scFv)", "scFv": "DIVMTQAAPSVPVTPGESVSISCRSSKSLLHSSGITSLYWYLQRPGQSPQLPIYRMSSLASGVPDRFSVSGSGTAFTLRISRVEAEDVGVYYCMQHLEYPLTFGAGTKLELKRSGGSTSGSGKPGSGEGSSGTQVQLQQSGAELLKPGASVKISCKATGYTFSNYWIEWVKQRPGHGLEWIGEILPGSGSAHYSEKFKDKATFTADTSSNTAYMQLSSLTSEDSAVYFCTRSPPNPGYWGQGTSVTVSS", "notes": "From mSPLINT selection"}, "B2": {"name": "anti-TrkA scFv CRB0084 (scFv)", "scFv": "QPVLTQPPSVSVAPRQTATITCGGNYIGSKSVHWYQQKPGQDPVLVVNDDSDRPSGIPERFSGSNSANTATLTISGVEAGDEADYYCQVWDSSTEPVVFGGGTKLTVLSGGSTSGSGKPGSGEGSSGTQVQLQQWGAGLLRPSETLSLTCTVSGGSFSDSYWTWIRQSPGKGLEWIGENNHRGSTNYSPTLRSRLSISIDSSKNQFSLKLSSVTAADTAVYYCARVPYRLRSRIFDVWGQGTMVTVSS", "notes": "From hSPLINT_09 selection"}, "B3": {"name": "anti-TrkA scFv CRB0089 (scFv)", "scFv": "QTVVTQEPSVSGAPGQRVTISCTGSSSIIGAGYEVHWYQHLPGTAPKLLIYDSINRPSGVPDRFSGSKSGTSASLAITGLQAEDEADYYCQSSAIFGGGTKLTVLSGGSTSGSGKPGSGEGSSGTQVQLQESGPGLVKPSQTLSLTCAISGDSVSSNSAAWNWIRQSPSRGLEWLGRTFHRSRWYNEYPVSVRSRITINPDTSNNQFTLQLNSVTPDDTAVYYCARAPVAGLTFDIWGQGTMVTVSS", "notes": "From hSPLINT_09 selection"}, "B4": {"name": "anti-TrkA scFv CRB0069 (scFv)", "scFv": "QPGLTQPPSASGTPGQRVTISCTGSSSNVGAGYTVHWYQQLPGTAPTLLIYDNNNRPSGVPDRFSGSRSGTSASLAITGLRAEDEADYYCQSYDRSRVYVFGTGTKLTVLSGGSTSGSGKPGSGEGSSGTQVQLQQSGPGLVKPSQTLSLTCAISGDSVSSNSAAWNWIRQSPSRGLERLGRTYYRSKWYNDYAESVKSRIIINSGTSKNQFSLHLNSVTPEDTAVYYCGRAKDGWYDAFDIWGQGTTVTVSS", "notes": "From hSPLINT_09 selection"}, "B5": {"name": "anti-TrkA scFv CRB0082 (scFv)", "scFv": "SYVLTQPPSVSVAPGTTARLSCEATKIGSQRLHWYQQKPGQAPVMVISFDSDRPSGIPDRFSGSRSGNTATLTISGVEAGDEADYYCNSRDSSGYHLVFGGGTKLTVLSGGSTSGSGKPGSGEGSSGTQVQLQQSGPGLVKPSQTLSLTCAISGDSVSSFTVAWNWIRQSPSRGLERLGRTYRRSKDYAEYMRSRLTINADTSKNQLSLQLDSVTPDDTAVYYCARGQNSAFDLWGQRTMVTVSS", "notes": "From hSPLINT_09 selection"}}, "data": [{"molecular_target": "T1, human TrkA receptor (native, on TF-1 cells) (human, UniProt P04629 33-796)", "T1 construct": "also called TF1 expressing TrkA receptor; TF-1 cell line expressing human TrkA receptor", "T1 sequence (P04629 33-796 limits assumed)": "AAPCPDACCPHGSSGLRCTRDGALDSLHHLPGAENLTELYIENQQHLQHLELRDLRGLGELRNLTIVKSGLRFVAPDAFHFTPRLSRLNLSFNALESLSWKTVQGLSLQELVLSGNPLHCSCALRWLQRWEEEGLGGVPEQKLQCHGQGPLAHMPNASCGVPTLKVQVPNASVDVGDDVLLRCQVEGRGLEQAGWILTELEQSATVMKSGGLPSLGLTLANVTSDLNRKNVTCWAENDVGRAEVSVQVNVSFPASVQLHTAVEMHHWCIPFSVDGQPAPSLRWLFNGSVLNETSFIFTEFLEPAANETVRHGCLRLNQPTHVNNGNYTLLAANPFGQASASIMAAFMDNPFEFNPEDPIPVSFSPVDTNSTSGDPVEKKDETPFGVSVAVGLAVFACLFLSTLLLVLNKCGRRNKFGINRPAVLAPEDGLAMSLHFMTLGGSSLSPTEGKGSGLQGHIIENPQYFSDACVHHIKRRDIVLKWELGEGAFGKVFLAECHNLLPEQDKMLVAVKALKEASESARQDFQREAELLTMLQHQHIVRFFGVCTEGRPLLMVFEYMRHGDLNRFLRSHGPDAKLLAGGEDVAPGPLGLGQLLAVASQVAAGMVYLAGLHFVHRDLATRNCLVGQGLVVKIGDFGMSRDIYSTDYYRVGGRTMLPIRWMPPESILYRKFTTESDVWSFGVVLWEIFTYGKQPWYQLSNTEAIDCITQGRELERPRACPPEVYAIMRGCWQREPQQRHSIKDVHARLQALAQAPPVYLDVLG", "experiment": "chip-based flow cytometry (Agilent Bioanalyzer 2100) on TF-1 cells expressing human TrkA; scFv at 5 µg/ml per paragraph 159", "procedure": "FIG. 5. FACS analysis performed with Bioanalyzer 2100. A cell fluid chip-based fluorescent cytometric assay that runs on Bioanalyzer 2100 (Agilent) for fast characterization of small population cell phenotypes was assessed. The assay determines the expression of specific cell surface markers. In this experiment, the specificity of scFvs on TF-1 cell line expressing human TrkA receptor was assessed. Six samples can be analyzed on each chip in one automated process. Results were in good agreement with conventional flow cytometry in quantisation.\n10⁶ cells/sample=tot: 6×10⁶ cells are first centrifuged at 350 g for 5 min at room temperature (RT) and wash with 12 ml of Staining Buffer (SB) at RT. The pellet was resuspended in 3 ml of SB at 4° C. and aliquot 0.5 ml of suspension in 1.5 ml conical tubes. Cells were centrifuged again at 350 g for 5 min at 4° C. and the pellet was resuspended in 1 ml HBSS at 4° C. 125 μl 16% p-formaldehyde (final conc 1.7%) was added into each tube and then the sample was incubated for 10 min at 4° C. on tube rotator. After 10 minutes, 75 μl of 10% detergent solution-Tween 20 (final conc 0.6%) was added and the samples were then incubated for 10 min at 4° C. on tube rotator. Samples were then washed once with FACS Buffer (0.8 ml/sample) at 4° C. and then centrifuged at 350 g for 5 min at 4° C. Cells were resuspended with 80 μl/sample of FACS Buffer. 20 μl of a 5× primary antibody solution were added (final concentration of scFvs is 5 μg/ml). After incubation for 1 hour at 4° C. on tube rotator samples were washed with FACS Buffer (0.5 ml/sample) at 4° C. and then centrifuged 5 min at 350 g at 4° C. Cells were resuspended with 80 μl/sample of FACS Buffer. 20 μl of a 5× secondary antibody solution were added. Final concentration of mouse anti-V5 antibody is 0.20 μg/ml. The samples were incubated for 1 hour at 4° C. on tube rotator. After incubation for 1 hour at 4° C. on tube rotator samples were washed with FACS Buffer (0.5 ml/sample) at 4° C. and then centrifuged 5 min at 350 g at 4° C. Cells were resuspended with 80 μl/sample of FACS Buffer. 20 μl of a 5× tertiary antibody solution were added. Final concentration of anti-mouse IgG-Cy5 is 4 μg/ml (1:250 diluted). The samples were incubated for 1 hour at 4° C. on tube rotator.", "values": [{"binder": "B1", "binding result": "binds"}, {"binder": "B2", "binding result": "binds"}, {"binder": "B3", "binding result": "binds"}, {"binder": "B4", "binding result": "binds"}]}, {"molecular_target": "T2, human Ig1,2 TrkA (recombinant D4-D5 domain of human TrkA receptor) (human, UniProt P04629 191-392)", "T2 construct": "also called hTrkA Ig1,2; TrkA Ig1,2", "T2 chain": "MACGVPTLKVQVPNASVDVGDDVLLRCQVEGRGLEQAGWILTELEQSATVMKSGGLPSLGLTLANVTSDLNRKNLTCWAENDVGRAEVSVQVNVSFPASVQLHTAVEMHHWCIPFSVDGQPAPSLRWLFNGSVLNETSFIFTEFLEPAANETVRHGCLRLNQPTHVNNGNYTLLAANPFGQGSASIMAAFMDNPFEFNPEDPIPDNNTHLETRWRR", "experiment": "SPR (Biacore X-100); scFv immobilised on CM5 chip, human Ig1,2 TrkA injected", "procedure": "(§1) The antibodies were also shown to be specific for hTrkA and mTrkA by relative binding to the BIACore sensor chips coated with the appropriate antigen. Antibodies were immobilized by ammine coupling to Biosensor CM5 sensorchips (Pharmacia) according to the manufacturers instructions. Anti-TrkA scFv proteins were diluted at 20-50 μg/ml in suitable pre-concentration buffer (at least 2 pH unit below the pI of the scFv in order to get a net positive charge), chosen among the Acetate buffers. The scFvs were immobilized at 100 RU to get a low density immobilization. As binder, the recombinant protein consisting of D4-D5 domain of human and murine TrkA receptor (hTrkA Ig1,2 and mTrkA Ig1,2 respectively) were injected over the immobilized scFv with a contact time of 60 seconds and with a dissociation time of 400 seconds and the assay workflow placed 5 serial dilutions of the TrkA Ig1,2 (starting in the micromolar range and diluting 1:2 each time). The regeneration condition were mild (contact time 30 seconds, 10 mM Glycine pH2). On the basis of the resulting sensorgrams, the concentrations of TrkA Ig1,2 were adjusted to optimize, contact time, dissociation time and regeneration. Data were analysed by Bioevaluation Software (see results on Table II and Table III). The quality of the data fitting were checked by the value of Chi² and of the U-value.\n(§2) We have carried out surface plasmon resonance (SPR) analyses to determine the binding kinetics of a panel of isolated anti-TrkA scFvs (SEQ ID NOs: 1, 2, 3, 4, 5, 6, 7, 8, 9, 10, 11, 12, 13, 14, 15 and 16). The scFvs were immobilized on a CM5 chip followed by injections at various concentration of human and murine Ig 1,2 TrkA (SEQ ID NO: 78) and mouse Ig1,2 TrkA (SEQ ID NO: 79).", "units": {"Kd": "nM", "koff": "s⁻¹", "kon": "M⁻¹ s⁻¹"}, "values": [{"binder": "B1", "Kd": 13.7, "koff": "3.75e-05", "kon": 2730}, {"binder": "B2", "Kd": 1700, "koff": 0.0163, "kon": 9600}, {"binder": "B3", "Kd": 16.9, "koff": "7.76e-05", "kon": 4600}, {"binder": "B4", "Kd": 5.7, "koff": "3.57e-05", "kon": 6270}, {"binder": "B5", "Kd": 42.1, "koff": "8.79e-05", "kon": 2090}]}, {"molecular_target": "T3, mouse Ig1,2 TrkA (recombinant D4-D5 domain of murine TrkA receptor) (mouse, UniProt Q3UFB7 193-413)", "T3 construct": "also called mTrkA Ig1,2", "T3 sequence (Q3UFB7 other isoform, or with tags, fused parts or gaps limits assumed)": "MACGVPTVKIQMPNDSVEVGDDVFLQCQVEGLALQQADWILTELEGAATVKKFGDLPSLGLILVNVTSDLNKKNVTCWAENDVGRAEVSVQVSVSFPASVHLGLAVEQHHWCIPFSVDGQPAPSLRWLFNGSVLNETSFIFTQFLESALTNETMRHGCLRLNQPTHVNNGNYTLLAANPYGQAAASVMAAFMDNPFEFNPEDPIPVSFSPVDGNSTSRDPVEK", "experiment": "SPR (Biacore X-100); scFv immobilised on CM5 chip, mouse Ig1,2 TrkA injected", "procedure": "as §1, §2", "units": {"Kd": "nM", "koff": "s⁻¹", "kon": "M⁻¹ s⁻¹"}, "values": [{"binder": "B1", "Kd": 1.1, "koff": "7.07e-06", "kon": 6440}, {"binder": "B2", "Kd": 2.18, "koff": "2.33e-05", "kon": 10700}, {"binder": "B3", "Kd": 14.2, "koff": "3.19e-05", "kon": 2250}, {"binder": "B4", "Kd": 1.67, "koff": "1.02e-05", "kon": 6120}, {"binder": "B5", "Kd": 131, "koff": 0.000344, "kon": 2630}]}, {"molecular_target": "T4, human TrkC immunoadhesin (human; Camelus dromedarius, UniProt Q16288 32-429)", "T4 construct": "extracellular domain; also called hTrkC-Fc; TrkC immunoadhesins; not shown: Fc portion (immunoglobulin heavy chain constant region) of IgG2a camel antibody (Camelus dromedarius)", "experiment": "specificity ELISA, antigens coated at 2 µg/mL, scFv at 50 ug/mL (upper panel) and 5 ug/mL (lower panel), OD 450 nm", "procedure": "(§3) FIG. 3. Specificity ELISA of isolated anti-TrkA scFvs versus human TrkA immunoadhesin (hTrkA-Fc), human TrkB immunoadhesins (hTrkB-Fc), human TrkC immunoadhesins (hTrkC-Fc) and human p75 immunoadhesins (hp75-Fc). Human antigens were coated at 2 μg/mL. Anti-TrkA scFvs were used at 50 μg/mL (upper panel) and/or 5 μg/mL (lower panel). The mean absorbance at 450 nm of the experiments performed in duplicate wells is shown with SD indicated by the bars.", "values": [{"binder": "B2", "binding result": "no binding (tested: 50 ug/mL)"}, {"binder": "B3", "binding result": "no binding (tested: 50 ug/mL)"}]}, {"molecular_target": "T5, human TrkB immunoadhesin (human; Camelus dromedarius, UniProt Q16620 32-430)", "T5 construct": "extracellular domain; also called hTrkB-Fc; TrkB immunoadhesins; not shown: Fc portion (immunoglobulin heavy chain constant region) of IgG2a camel antibody (Camelus dromedarius)", "T5 sequence (Q16620 32-430)": "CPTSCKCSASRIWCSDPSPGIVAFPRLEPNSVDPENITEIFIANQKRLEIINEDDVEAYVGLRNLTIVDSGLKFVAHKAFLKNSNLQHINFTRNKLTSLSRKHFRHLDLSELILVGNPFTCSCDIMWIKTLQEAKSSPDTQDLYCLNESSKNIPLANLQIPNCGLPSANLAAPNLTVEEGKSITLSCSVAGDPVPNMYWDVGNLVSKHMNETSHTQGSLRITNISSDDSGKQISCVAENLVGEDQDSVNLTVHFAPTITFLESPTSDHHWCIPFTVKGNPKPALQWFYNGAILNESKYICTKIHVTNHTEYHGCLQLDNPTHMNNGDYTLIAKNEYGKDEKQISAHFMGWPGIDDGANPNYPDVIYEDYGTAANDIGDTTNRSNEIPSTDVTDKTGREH", "experiment": "specificity ELISA, antigens coated at 2 µg/mL, scFv at 50 ug/mL (upper panel) and 5 ug/mL (lower panel), OD 450 nm", "procedure": "as §3", "values": [{"binder": "B2", "binding result": "no binding (tested: 50 ug/mL)"}]}, {"molecular_target": "T6, human p75 immunoadhesin (human; Camelus dromedarius, UniProt P08138 29-250)", "T6 construct": "extracellular domain; also called hp75-Fc; p75NTR immunoadhesin; not shown: Fc portion (immunoglobulin heavy chain constant region) of IgG2a camel antibody (Camelus dromedarius)", "T6 sequence (looked up)": "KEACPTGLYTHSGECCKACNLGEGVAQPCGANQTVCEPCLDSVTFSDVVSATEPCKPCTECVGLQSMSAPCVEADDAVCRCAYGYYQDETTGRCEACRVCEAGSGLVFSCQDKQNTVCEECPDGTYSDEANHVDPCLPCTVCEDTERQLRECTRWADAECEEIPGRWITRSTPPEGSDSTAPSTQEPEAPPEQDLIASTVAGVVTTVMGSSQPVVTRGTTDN", "experiment": "specificity ELISA, antigens coated at 2 µg/mL, scFv at 50 ug/mL (upper panel) and 5 ug/mL (lower panel), OD 450 nm", "procedure": "as §3", "values": [{"binder": "B1", "binding result": "no binding (tested: 50 ug/mL)"}, {"binder": "B3", "binding result": "no binding (tested: 50 ug/mL)"}]}]}
